Here are results for 15 molecules from article PMC1277809.

Where two headings read alike, the source gives them in different places.

Assay in all cases: competition EMSA
For data set [1], the target named is T1, LexA (DinR) wild type (Bacillus subtilis, UniProt P31080 1-205).
T1 sequence: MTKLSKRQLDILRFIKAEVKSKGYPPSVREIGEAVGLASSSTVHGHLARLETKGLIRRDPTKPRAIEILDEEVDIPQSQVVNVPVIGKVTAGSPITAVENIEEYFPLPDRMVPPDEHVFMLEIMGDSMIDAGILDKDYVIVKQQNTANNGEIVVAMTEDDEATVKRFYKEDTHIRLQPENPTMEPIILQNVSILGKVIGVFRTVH

For data set [2], the target named is T1, LexA (DinR) wild type. This is another data set of the same source.
The target of data set [3] is T1, LexA (DinR) wild type. The source holds these as a separate data set.
Data set [4] deals with T1, LexA (DinR) wild type. The source holds these as a separate data set.
The target of data set [5] is T1, LexA (DinR) wild type. The source holds these as a separate data set.
Data set [6] has as its target T1, LexA (DinR) wild type. This is another data set of the same source.
Data set [7] addresses T1, LexA (DinR) wild type. This is another data set of the same source.
Data set [8] concerns the target T1, LexA (DinR) wild type. This is another data set of the same source.
Data set [9] has as its target T1, LexA (DinR) wild type. The source holds these as a separate data set.
Data set [10] concerns the target T1, LexA (DinR) wild type. The source holds these as a separate data set.
The target in data set [11] is T1, LexA (DinR) wild type. This is another data set of the same source.
The target in data set [12] is T1, LexA (DinR) wild type. The source holds these as a separate data set.
Data set [13] concerns the target T1, LexA (DinR) wild type. This is another data set of the same source.
For data set [14], the target named is T1, LexA (DinR) wild type. The source holds these as a separate data set.
The target in data set [15] is T1, LexA (DinR) wild type. The source holds these as a separate data set.

B1: recA op A6C (dsDNA)
DNA 1: GGGGGGCGAATCTGCGTTCGCCCCCC
DNA 2: GGGGGGCGAACGCAGATTCGCCCCCC
In the data set with LexA (DinR) wild type [1], B1 had a Ki of 20 nM.

B2: recA op T5C,A6C (dsDNA)
DNA 1: GGGGGGCGAACCTGCGTTCGCCCCCC
DNA 2: GGGGGGCGAACGCAGGTTCGCCCCCC
On to B2, for which the affinity in the data set with LexA (DinR) wild type [2], expressed as Ki, was 0.56 nM.

B3: recA op G2A,T5C (dsDNA)
DNA 1: GGGGGGCAAACATGCGTTCGCCCCCC
DNA 2: GGGGGGCGAACGCATGTTTGCCCCCC
In the case of B3, the affinity in the data set with LexA (DinR) wild type [3], expressed as Ki, was 5.2 nM.

B4: recA op T7C (dsDNA)
DNA 1: GGGGGGCGAATACGCGTTCGCCCCCC
DNA 2: GGGGGGCGAACGCGTATTCGCCCCCC
In the data set with LexA (DinR) wild type [4], B4 displayed a Ki of 7.8 nM.

B5: recA op T7A (dsDNA)
DNA 1: GGGGGGCGAATAAGCGTTCGCCCCCC
DNA 2: GGGGGGCGAACGCTTATTCGCCCCCC
In turn, B5 registered a Ki with LexA (DinR) wild type [5] of 17.1 nM.

B6: recA op C1G (dsDNA)
DNA 1: GGGGGGGGAATATGCGTTCGCCCCCC
DNA 2: GGGGGGCGAACGCATATTCCCCCCCC
For the molecule B6, affinity in the data set with LexA (DinR) wild type [6] was put at a Ki of 53 nM.

B7: recA op T5C,T7A (dsDNA)
DNA 1: GGGGGGCGAACAAGCGTTCGCCCCCC
DNA 2: GGGGGGCGAACGCTTGTTCGCCCCCC
The molecule B7 registered a Ki with LexA (DinR) wild type [7] of 0.62 nM.

B8: recA op A6T (dsDNA)
DNA 1: GGGGGGCGAATTTGCGTTCGCCCCCC
DNA 2: GGGGGGCGAACGCAAATTCGCCCCCC
Take B8: the Ki with LexA (DinR) wild type [8] stood at 11.5 nM.

B9: recA op A6G (dsDNA)
DNA 1: GGGGGGCGAATGTGCGTTCGCCCCCC
DNA 2: GGGGGGCGAACGCACATTCGCCCCCC
The molecule B9 came in with a Ki with LexA (DinR) wild type [9] of 6.4 nM.

B10: recA op C1A (dsDNA)
DNA 1: GGGGGGAGAATATGCGTTCGCCCCCC
DNA 2: GGGGGGCGAACGCATATTCTCCCCCC
In the data set with LexA (DinR) wild type [10], B10 displayed an inhibition constant (Ki) of 11.4 nM.

B11: recA op T5C,A6T (dsDNA)
DNA 1: GGGGGGCGAACTTGCGTTCGCCCCCC
DNA 2: GGGGGGCGAACGCAAGTTCGCCCCCC
In the data set with LexA (DinR) wild type [11], B11 showed a Ki of 0.49 nM.

B12: recA op T5C (dsDNA)
DNA 1: GGGGGGCGAACATGCGTTCGCCCCCC
DNA 2: GGGGGGCGAACGCATGTTCGCCCCCC
B12 yielded a Ki with LexA (DinR) wild type [12] of 0.22 nM.

B13: recA op C1A,T5C (dsDNA)
DNA 1: GGGGGGAGAACATGCGTTCGCCCCCC
DNA 2: GGGGGGCGAACGCATGTTCTCCCCCC
With B13, the Ki with LexA (DinR) wild type [13] turned out to be 0.42 nM.

B14: recA op T5C,G8A,C9T (preferred) (dsDNA)
DNA 1: GGGGGGCGAACATATGTTCGCCCCCC
DNA 2: GGGGGGCGAACATATGTTCGCCCCCC
B14: the Ki in the data set with LexA (DinR) wild type [14] was 0.17 nM.

B15: recA op C1G,T5C (dsDNA)
DNA 1: GGGGGGGGAACATGCGTTCGCCCCCC
DNA 2: GGGGGGCGAACGCATGTTCCCCCCCC
In the case of B15, the affinity with LexA (DinR) wild type [15] corresponds to a Ki of 1 nM.
